From the supplement of paper PMC10567573

B1: ZNF207 (parent)
chain: FPSAGQAQAAVQGPVGTDFKPLNS

Variants of: B1
Assay: protein stability index of a GFP-peptide fusion (GPS, HEK-293T) (PSI 1-6); higher = more stable
Conditions: c terminus: a fixed tail appended
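Further: lentivirally expressed fusions sorted by FACS into six bins by GFP to DsRed ratio, PSI derived from sequencing read proportions per bin multiplied by bin number.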

Variant	protein stability index
FPSAGQAQAAVQGPVGTDFHPLNS [K20H]	3.49
FPSAGQAQAAVQGPVGTDFQPLNS [K20Q]	3.47
FPSAGQAQAAVQGPVGTDFRPLNS [K20R]	3.49
FPSAGQAQAAVQGPVGTDFEPLNS [K20E]	3.98
FPSAGQAQAAVQGPVGTDFDPLNS [K20D]	4.07
FPSAGQAQAAVQGPVGTDFNPLNS [K20N]	3.72
FPSAGQAQAAVQGPVGTDFPPLNS [K20P]	3.35
FPSAGQAQAAVQGPVGTDFGPLNS [K20G]	3.77
FPSAGQAQAAVQGPVGTDFVPLNS [K20V]	3.25
FPSAGQAQAAVQGPVGTDFWPLNS [K20W]	2.59
FPSAGQAQAAVQGPVGTDFSPLNS [K20S]	3.34
FPSAGQAQAAVQGPVGTDFTPLNS [K20T]	3.59
FPSAGQAQAAVQGPVGTDFFPLNS [K20F]	2.35
FPSAGQAQAAVQGPVGTDFCPLNS [K20C]	3.85
FPSAGQAQAAVQGPVGTDFIPLNS [K20I]	3.34
FPSAGQAQAAVQGPVGTDFYPLNS [K20Y]	2.79
FPSAGQAQAAVQGPVGTDFMPLNS [K20M]	3.33
FPSAGQAQAAVQGPVGTDFAPLNS [K20A]	3.2
FPSAGQAQAAVQGPVGTDFLPLNS [K20L]	3.2
FPSAGQAQAAVQGPVGTDAKPLNS [F19A]	3.85
FPSAGQAQAAVQGPVGTDSKPLNS [F19S]	4.03
FPSAGQAQAAVQGPVGTDYKPLNS [F19Y]	3.79
FPSAGQAQAAVQGPVGTDEKPLNS [F19E]	4.06
FPSAGQAQAAVQGPVGTDRKPLNS [F19R]	4.11

Variant	protein stability index
FPSAGQAQAAVQGPVGTDIKPLNS [F19I]	3.64
FPSAGQAQAAVQGPVGTDLKPLNS [F19L]	3.91
FPSAGQAQAAVQGPVGTDGKPLNS [F19G]	4.15
FPSAGQAQAAVQGPVGTDMKPLNS [F19M]	3.76
FPSAGQAQAAVQGPVGTDPKPLNS [F19P]	3.29
FPSAGQAQAAVQGPVGTDWKPLNS [F19W]	3.41
FPSAGQAQAAVQGPVGTDVKPLNS [F19V]	3.35
FPSAGQAQAAVQGPVGTDNKPLNS [F19N]	4.33
FPSAGQAQAAVQGPVGTDDKPLNS [F19D]	4.4
FPSAGQAQAAVQGPVGTDCKPLNS [F19C]	3.49
FPSAGQAQAAVQGPVGTDQKPLNS [F19Q]	3.97
FPSAGQAQAAVQGPVGTDKKPLNS [F19K]	4.17
FPSAGQAQAAVQGPVGTDHKPLNS [F19H]	3.77
FPSAGQAQAAVQGPVGTDTKPLNS [F19T]	3.55
FPSAGQAQAAVQGPVGTDFKPLND [S24D]	4.02
FPSAGQAQAAVQGPVGTDFKPLNH [S24H]	3.73
FPSAGQAQAAVQGPVGTDFKPLNF [S24F]	2.63
FPSAGQAQAAVQGPVGTDFKPLNA [S24A]	3.36
FPSAGQAQAAVQGPVGTDFKPLNI [S24I]	2.98
FPSAGQAQAAVQGPVGTDFKPLNE [S24E]	3.77
FPSAGQAQAAVQGPVGTDFKPLNC [S24C]	3.31
FPSAGQAQAAVQGPVGTDFKPLNG [S24G]	3.15
FPSAGQAQAAVQGPVPTDFKPLNS [G16P]	3.42
FPSAGQAQAAVQGPVFTDFKPLNS [G16F]	3.17

Variant	protein stability index
FPSAGQAQAAVQGPVHTDFKPLNS [G16H]	3.52
FPSAGQAQAAVQGPVETDFKPLNS [G16E]	3.94
FPSAGQAQAAVQGPVRTDFKPLNS [G16R]	3.42
FPSAGQAQAAVQGPVSTDFKPLNS [G16S]	3.48
FPSAGQAQAAVQGPVNTDFKPLNS [G16N]	3.65
FPSAGQAQAAVQGPVCTDFKPLNS [G16C]	3.37
FPSAGQAQAAVQGPVITDFKPLNS [G16I]	3.27
FPSAGQAQAAVQGPVATDFKPLNS [G16A]	3.13
FPSAGQAQAAVQGPVDTDFKPLNS [G16D]	3.75
FPSAGQAQAAVQGPVQTDFKPLNS [G16Q]	3.93
FPSAGQAQAAVQGPVMTDFKPLNS [G16M]	3.04
FPSAGQAQAAVQGPVKTDFKPLNS [G16K]	3.12
FPSAGQAQAAVQGPVLTDFKPLNS [G16L]	3.21
FPSAGQAQAAVQGPVYTDFKPLNS [G16Y]	2.9
FPSAGQAQAAVQGPVWTDFKPLNS [G16W]	2.3
FPSAGQAQAAVQGPVVTDFKPLNS [G16V]	3.25
FPSAGQAQAAVQGPVTTDFKPLNS [G16T]	3.64
FPSAGQAQAAVQGVVGTDFKPLNS [P14V]	3.32
FPSAGQAQAAVQGYVGTDFKPLNS [P14Y]	3.44
FPSAGQAQAAVQGNVGTDFKPLNS [P14N]	3.68
FPSAGQAQAAVQGQVGTDFKPLNS [P14Q]	3.62
FPSAGQAQAAVQGWVGTDFKPLNS [P14W]	1.97
FPSAGQAQAAVQGTVGTDFKPLNS [P14T]	3.3
FPSAGQAQAAVQGRVGTDFKPLNS [P14R]	3.36

Variant	protein stability index
FPSAGQAQAAVQGMVGTDFKPLNS [P14M]	3.22
FPSAGQAQAAVQGSVGTDFKPLNS [P14S]	3.34
FPSAGQAQAAVQGPVGTDFKALNS [P21A]	3.59
FPSAGQAQAAVQGPVGTDFKMLNS [P21M]	3.36
FPSAGQAQAAVQGPVGTDFKWLNS [P21W]	2.67
FPSAGQAQAAVQGPVGTDFKLLNS [P21L]	2.51
FPSAGQAQAAVQGPVGTDFKQLNS [P21Q]	3.88
FPSAGQAQAAVQGPVGTDFKVLNS [P21V]	2.87
FPSAGQAQAAVQGPVGTDFKRLNS [P21R]	3.77
FPSAGQAQAAVQGPVGTDFKFLNS [P21F]	2.81
FPSAGQAQAAVQGPVGTDFKGLNS [P21G]	3.13
FPSAGQAQAAVQGPVGTDFKDLNS [P21D]	3.81
FPSAGQAQAAVQGPVGTDFKCLNS [P21C]	3.29
FPSAGQAQAAVQGPVGTDFKSLNS [P21S]	3.62
FPSAGQAQAAVQGPVGTDFKNLNS [P21N]	3.62
FPSAGQAQAAVQGPVGTDFKTLNS [P21T]	3.17
FPSAGQAQAAVQGPVGTDFKILNS [P21I]	2.87
FPSAGQAQAAVQGPVGTDFKYLNS [P21Y]	3.31
FPSAGQAQAAVQGPVGTDFKKLNS [P21K]	3.69
FPSAGQAQAAVQGPVGTDFKHLNS [P21H]	3.28
FPSAGQAQAAVQGPVGTDFKELNS [P21E]	3.55
FPSAGQAQAAVQGPVGVDFKPLNS [T17V]	2.81
FPSAGQAQAAVQGPVGADFKPLNS [T17A]	3.03
FPSAGQAQAAVQGPVGPDFKPLNS [T17P]	3.3

Variant	protein stability index
FPSAGQAQAAVQGPVGMDFKPLNS [T17M]	3.03
FPSAGQAQAAVQGPVGKDFKPLNS [T17K]	3.27
FPSAGQAQAAVQGPVGGDFKPLNS [T17G]	3.78
FPSAGQAQAAVQGPVGHDFKPLNS [T17H]	3.26
FPSAGQAQAAVQGPVGDDFKPLNS [T17D]	4.02
FPSAGQAQAAVQGPVGCDFKPLNS [T17C]	3.12
FPSAGQAQAAVQGPVGIDFKPLNS [T17I]	3.03
FPSAGQAQAAVQGPVGLDFKPLNS [T17L]	2.84
FPSAGQAQAAVQGPVGEDFKPLNS [T17E]	3.9
FPSAGQAQAAVQGPVGYDFKPLNS [T17Y]	2.85
FPSAGQAQAAVQGPVGQDFKPLNS [T17Q]	4.12
FPSAGQAQAAVQGPVGRDFKPLNS [T17R]	3.19
FPSAGQAQAAVQGPVGFDFKPLNS [T17F]	3.05
FPSAGQAQAAVQGPVGNDFKPLNS [T17N]	3.65
FPSAGQAQAAVQGPVGSDFKPLNS [T17S]	3.88
FPSAGQAQAAVQGPVGWDFKPLNS [T17W]	2.25
FPSAGQAQAAVQGPVGTVFKPLNS [D18V]	2.61
FPSAGQAQAAVQGPVGTWFKPLNS [D18W]	2.51
FPSAGQAQAAVQGPVGTMFKPLNS [D18M]	2.85
FPSAGQAQAAVQGPVGTQFKPLNS [D18Q]	3.02
FPSAGQAQAAVQGPVGTIFKPLNS [D18I]	2.67
FPSAGQAQAAVQGPVGTEFKPLNS [D18E]	3.63
FPSAGQAQAAVQGPVGTAFKPLNS [D18A]	3.31
FPSAGQAQAAVQGPVGTPFKPLNS [D18P]	3.11

Variant	protein stability index
FPSAGQAQAAVQGPVGTHFKPLNS [D18H]	2.74
FPSAGQAQAAVQGPVGTGFKPLNS [D18G]	2.8
FPSAGQAQAAVQGPVGTTFKPLNS [D18T]	3.4
FPSAGQAQAAVQGPVGTLFKPLNS [D18L]	2.32
FPSAGQAQAAVQGPVGTNFKPLNS [D18N]	3.79
FPSAGQAQAAVQGPVGTFFKPLNS [D18F]	2.34
FPSAGQAQAAVQGPVGTRFKPLNS [D18R]	2.96
FPSAGQAQAAVQGPVGTYFKPLNS [D18Y]	2.36
FPSAGQAQAAVQGPVGTCFKPLNS [D18C]	2.65
FPSAGQAQAAVQGPVGTSFKPLNS [D18S]	2.81
FPSAGQAQAAVQGPVGTKFKPLNS [D18K]	2.99
FPSAGQAQAAVQGPVGTDFKPNNS [L22N]	4.33
FPSAGQAQAAVQGPVGTDFKPTNS [L22T]	3.64
FPSAGQAQAAVQGPVGTDFKPWNS [L22W]	2.69
FPSAGQAQAAVQGPVGTDFKPVNS [L22V]	3.86
FPSAGQAQAAVQGPVGTDFKPGNS [L22G]	3.25
FPSAGQAQAAVQGPVGTDFKPFNS [L22F]	3.61
FPSAGQAQAAVQGPVGTDFKPINS [L22I]	3.71
FPSAGQAQAAVQGPVGTDFKPCNS [L22C]	3.35
FPSAGQAQAAVQGPVGTDFKPKNS [L22K]	3.58
FPSAGQAQAAVQGPVGTDFKPRNS [L22R]	3.89
FPSAGQAQAAVQGPVGTDFKPSNS [L22S]	3.95
FPSAGQAQAAVQGPVGTDFKPPNS [L22P]	3.63
FPSAGQAQAAVQGPVGTDFKPDNS [L22D]	4.46

Variant	protein stability index
FPSAGQAQAAVQGPVGTDFKPANS [L22A]	3.67
FPSAGQAQAAVQGPVGTDFKPHNS [L22H]	4.15
FPSAGQAQAAVQGPVGTDFKPMNS [L22M]	3.69
FPSAGQAQAAVQGPVGTDFKPQNS [L22Q]	2.92
FPSAGQAQAAVQGPVGTDFKPENS [L22E]	3.81
FPSAGQAQAAVQGPVGTDFKPYNS [L22Y]	3.61
FPSAGQAQAAVQGPAGTDFKPLNS [V15A]	3.62
FPSAGQAQAAVQGPLGTDFKPLNS [V15L]	3.44
FPSAGQAQAAVQGPIGTDFKPLNS [V15I]	3.84
FPSAGQAQAAVQGPFGTDFKPLNS [V15F]	2.73
FPSAGQAQAAVQGPGGTDFKPLNS [V15G]	3.1
FPSAGQAQAAVQGPHGTDFKPLNS [V15H]	3.29
FPSAGQAQAAVQGPWGTDFKPLNS [V15W]	1.75
FPSAGQAQAAVQGPEGTDFKPLNS [V15E]	3.77
FPSAGQAQAAVQGPMGTDFKPLNS [V15M]	3.01
FPSAGQAQAAVQGPPGTDFKPLNS [V15P]	3.63
FPSAGQAQAAVQGPNGTDFKPLNS [V15N]	3.88
FPSAGQAQAAVQGPYGTDFKPLNS [V15Y]	2.93
FPSAGQAQAAVQGPSGTDFKPLNS [V15S]	3.84
FPSAGQAQAAVQGPTGTDFKPLNS [V15T]	3.7
FPSAGQAQAAVQGPQGTDFKPLNS [V15Q]	3.62
FPSAGQAQAAVQGPCGTDFKPLNS [V15C]	3.16
FPSAGQAQAAVQGPKGTDFKPLNS [V15K]	3.58
FPSAGQAQAAVQGPRGTDFKPLNS [V15R]	3.28

Variant	protein stability index
FPSAGQAQAAVQGPDGTDFKPLNS [V15D]	3.49
FPSAGQAQAAVQGPVGTDFKPLCS [N23C]	3.37
FPSAGQAQAAVQGPVGTDFKPLDS [N23D]	3.55
FPSAGQAQAAVQGPVGTDFKPLFS [N23F]	2.41
FPSAGQAQAAVQGPVGTDFKPLHS [N23H]	3.44
FPSAGQAQAAVQGPVGTDFKPLYS [N23Y]	2.68
FPSAGQAQAAVQGPVGTDFKPLMS [N23M]	3.17
FPSAGQAQAAVQGPVGTDFKPLRS [N23R]	3.91
FPSAGQAQAAVQGPVGTDFKPLVS [N23V]	2.93
FPSAGQAQAAVQGPVGTDFKPLWS [N23W]	2.01
FPSAGQAQAAVQGPVGTDFKPLQS [N23Q]	3.22
FPSAGQAQAAVQGPVGTDFKPLGS [N23G]	3.07
FPSAGQAQAAVQGPVGTDFKPLTS [N23T]	3.45
FPSAGQAQAAVQGPVGTDFKPLSS [N23S]	3.25
FPSAGQAQAAVQGPVGTDFKPLLS [N23L]	2.71
FPSAGQAQAAVQGPVGTDFKPLES [N23E]	3.44
FPSAGQAQAAVQGPVGTDFKPLPS [N23P]	3.03
FPSAGQAQAAVQGPVGTDFKPLAS [N23A]	2.88
FPSAGQAQAAVQGPVGTDFKPLKS [N23K]	3.48
FPSAGQAQAAVQGPVGTDFKPLIS [N23I]	3.15
